Measurements as given in patent US20080234216A1.

Molecular target: Truncated TGF-β type III receptor encoded by partial rat cDNA clone R3-OF (rat) (UniProt P26342)
Experiment: total 125I-TGF-β binding per glass slide of COS cells transfected with the cDNA clone (calculated, data not shown)

Chain of Recombinant human TGF-β1 (P01137 279-390 limits assumed): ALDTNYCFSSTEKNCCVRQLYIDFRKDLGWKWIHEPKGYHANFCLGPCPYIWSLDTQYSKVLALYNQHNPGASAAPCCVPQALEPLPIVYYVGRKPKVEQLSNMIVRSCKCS
Chain of Truncated TGF-β type III receptor encoded by partial rat cDNA clone R3-OF (rat) (P26342 24-818 L164V limits assumed): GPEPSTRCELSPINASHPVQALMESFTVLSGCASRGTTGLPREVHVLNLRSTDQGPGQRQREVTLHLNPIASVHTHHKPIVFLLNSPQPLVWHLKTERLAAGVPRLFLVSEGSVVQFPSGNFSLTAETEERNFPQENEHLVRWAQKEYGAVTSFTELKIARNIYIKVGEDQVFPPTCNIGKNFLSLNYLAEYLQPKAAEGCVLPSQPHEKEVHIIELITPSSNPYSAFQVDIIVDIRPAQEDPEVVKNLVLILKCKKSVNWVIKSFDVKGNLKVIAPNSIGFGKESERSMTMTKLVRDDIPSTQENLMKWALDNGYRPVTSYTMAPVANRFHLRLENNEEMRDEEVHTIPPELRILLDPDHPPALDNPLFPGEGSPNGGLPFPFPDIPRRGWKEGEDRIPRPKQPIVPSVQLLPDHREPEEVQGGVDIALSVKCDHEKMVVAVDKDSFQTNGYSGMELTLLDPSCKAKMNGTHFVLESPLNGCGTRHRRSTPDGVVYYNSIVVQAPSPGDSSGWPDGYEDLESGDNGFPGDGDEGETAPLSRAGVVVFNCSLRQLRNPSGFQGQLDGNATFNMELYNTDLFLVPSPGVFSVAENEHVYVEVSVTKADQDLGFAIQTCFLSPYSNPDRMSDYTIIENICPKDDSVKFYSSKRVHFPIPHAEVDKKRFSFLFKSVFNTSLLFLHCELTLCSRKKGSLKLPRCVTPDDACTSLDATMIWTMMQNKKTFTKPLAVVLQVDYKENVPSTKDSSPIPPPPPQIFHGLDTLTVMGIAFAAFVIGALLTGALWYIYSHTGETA

fold total 125I-TGF-β binding over mock transfectants: 2 fold
Substance: Recombinant human TGF-β1 (from UniProt P01137 279-390) (ligand)
